The record followed here is US8043804 (TRUSTEES OF COLUMBIA UNIVERSITY IN THE CITY OF NEW YORK, dated 2011).

In test [1] the target is T1, DBC1 (Deleted in Breast Cancer 1) protein (human, UniProt Q8N163 1-923).
T1 construct: Endogenous protein of HeLa, U2OS and 293 cells (about 140 kDa band), or expressed from a vector without a stated tag in H1299 cells; also called endogenous DBC1
In words: M2 immunoprecipitation of Flag-tagged SIRT family members from 293 cells, Western blot (FIG. 2d). The procedure:
(§1) Next, whether SIRT1 binds DBC1 in vitro was tested. […] The N-terminus of DBC1 as the SIRT1 binding domain was identified (FIG. 7). Since the enzymatic core sequence represents the most conserved region of mammalian SIRT protein family, whether DBC1 interacts with other members of this family was determined. Flag-tagged derivatives of the seven human SIRT polypeptides (SIRT1-7) were each expressed in 293 cells and extracts of the transfected cells were immunoprecipitated with the α-Flag antibody. […] Although similar expression levels for all seven Flag-SIRT polypeptides were detected, none of the other SIRT proteins (SIRT2, SIRT3, SIRT4, SIRT5, SIRT6 and SIRT7) were able to co-immunoprecipitate DBC1 (lanes 3-8, FIG. 2d).
(In general: Immunoblotting shows a protein as a band on a membrane.)

The target in test [2] is T2, SIRT1 (Silencing mating type information regulator 2 homolog) (human, UniProt Q96EB6 2-747).
T2 construct: Endogenous protein of HeLa and U2OS cells, or expressed from a vector without a stated tag in H1299 cells; also called endogenous SIRT1; Sir2
T2 sequence (looked up): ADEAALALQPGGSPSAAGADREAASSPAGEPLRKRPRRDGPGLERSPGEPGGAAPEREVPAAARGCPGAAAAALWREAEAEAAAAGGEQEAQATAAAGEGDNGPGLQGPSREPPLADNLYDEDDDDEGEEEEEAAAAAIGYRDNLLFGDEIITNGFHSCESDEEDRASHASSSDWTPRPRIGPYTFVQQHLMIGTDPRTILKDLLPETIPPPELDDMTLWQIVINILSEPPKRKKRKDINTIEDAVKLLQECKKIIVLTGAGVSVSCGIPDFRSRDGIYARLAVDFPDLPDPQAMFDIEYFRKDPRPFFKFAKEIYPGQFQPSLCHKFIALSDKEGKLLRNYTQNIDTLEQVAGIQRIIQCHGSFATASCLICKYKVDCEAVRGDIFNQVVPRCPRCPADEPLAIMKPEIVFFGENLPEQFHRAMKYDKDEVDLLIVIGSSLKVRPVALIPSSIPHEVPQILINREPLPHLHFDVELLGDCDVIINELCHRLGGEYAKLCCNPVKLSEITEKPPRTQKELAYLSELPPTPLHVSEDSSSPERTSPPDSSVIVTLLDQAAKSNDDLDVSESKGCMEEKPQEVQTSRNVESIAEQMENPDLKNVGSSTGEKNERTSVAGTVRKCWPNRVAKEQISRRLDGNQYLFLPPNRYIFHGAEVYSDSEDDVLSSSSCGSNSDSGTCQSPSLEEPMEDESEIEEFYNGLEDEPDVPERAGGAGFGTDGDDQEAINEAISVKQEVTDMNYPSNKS
Put plainly: affinity-purified SIRT1 complexes from HeLa extracts, Western blot. The procedure:
Figure 1: FIG. 1. Identification of DBC1 as a major component of the SIRT1 complexes in human cells. (a) Colloidal-blue staining of affinity-purified SIRT1 complexes from HeLa extracts with the α-SIRT1 antibody column (lane 2) and a control elute from the same extract with a control antibody column (lane 3). Specific SIRT1 interacting proteins were analyzed by mass spectrometry. (b) Western Blot of input (lane 1), control IP (lane 2) and α-SIRT1 antibody IP (lane 3) for the known SIRT1 interacting protein 14-3-3σ (lower panel) and SIRT1 (upper panel) to verify specificity of the analyzed SIRT1 complex. (c) Schematic representation of the DBC1 protein.

The target of test [3] is T1, DBC1 (Deleted in Breast Cancer 1) …. Put plainly: anti-Flag immunoprecipitation from transfected 293 cells, Western blot for endogenous DBC1. The procedure:
as §1

Test [4] deals with T3, ^35S-labeled in vitro-translated DBC1 (human, UniProt Q8N163 1-923, labelled by incorporation of ^35S-Methionine).
T3 construct: also called ^35S-DBC1; pCIN4-DBC1 product
T3 sequence (Q8N163 whole entry): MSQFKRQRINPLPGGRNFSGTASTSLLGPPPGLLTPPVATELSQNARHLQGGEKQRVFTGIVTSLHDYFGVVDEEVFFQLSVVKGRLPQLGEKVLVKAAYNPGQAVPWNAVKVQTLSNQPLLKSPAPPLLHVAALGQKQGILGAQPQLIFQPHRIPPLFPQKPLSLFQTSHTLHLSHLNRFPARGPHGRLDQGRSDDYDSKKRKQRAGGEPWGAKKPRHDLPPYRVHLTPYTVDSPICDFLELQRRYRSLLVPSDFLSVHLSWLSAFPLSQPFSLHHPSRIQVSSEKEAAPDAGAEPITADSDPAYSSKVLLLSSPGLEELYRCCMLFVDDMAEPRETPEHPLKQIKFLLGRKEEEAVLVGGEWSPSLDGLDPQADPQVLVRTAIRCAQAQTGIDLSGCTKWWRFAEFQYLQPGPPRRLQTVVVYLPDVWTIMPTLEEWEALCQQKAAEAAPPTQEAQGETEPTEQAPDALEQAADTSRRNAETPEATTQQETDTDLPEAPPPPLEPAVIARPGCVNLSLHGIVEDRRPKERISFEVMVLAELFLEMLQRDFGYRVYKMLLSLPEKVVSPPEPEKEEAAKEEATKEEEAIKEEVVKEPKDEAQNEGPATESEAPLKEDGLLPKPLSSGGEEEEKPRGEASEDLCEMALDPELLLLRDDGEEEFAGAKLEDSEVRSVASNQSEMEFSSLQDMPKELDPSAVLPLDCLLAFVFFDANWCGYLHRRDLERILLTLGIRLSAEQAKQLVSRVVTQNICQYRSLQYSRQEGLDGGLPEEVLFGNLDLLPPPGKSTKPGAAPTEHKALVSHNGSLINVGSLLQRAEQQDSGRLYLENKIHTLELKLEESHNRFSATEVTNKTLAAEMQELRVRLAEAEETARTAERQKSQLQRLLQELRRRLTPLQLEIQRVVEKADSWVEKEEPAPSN
Put plainly: GST pull-down, autoradiography. On the procedure:
as §1

T1 sequence (Q8N163 whole entry): as above

B1: Flag-SIRT1 (enzyme, human, UniProt Q96EB6 1-747, looked up)
chain: MADEAALALQPGGSPSAAGADREAASSPAGEPLRKRPRRDGPGLERSPGEPGGAAPEREVPAAARGCPGAAAAALWREAEAEAAAAGGEQEAQATAAAGEGDNGPGLQGPSREPPLADNLYDEDDDDEGEEEEEAAAAAIGYRDNLLFGDEIITNGFHSCESDEEDRASHASSSDWTPRPRIGPYTFVQQHLMIGTDPRTILKDLLPETIPPPELDDMTLWQIVINILSEPPKRKKRKDINTIEDAVKLLQECKKIIVLTGAGVSVSCGIPDFRSRDGIYARLAVDFPDLPDPQAMFDIEYFRKDPRPFFKFAKEIYPGQFQPSLCHKFIALSDKEGKLLRNYTQNIDTLEQVAGIQRIIQCHGSFATASCLICKYKVDCEAVRGDIFNQVVPRCPRCPADEPLAIMKPEIVFFGENLPEQFHRAMKYDKDEVDLLIVIGSSLKVRPVALIPSSIPHEVPQILINREPLPHLHFDVELLGDCDVIINELCHRLGGEYAKLCCNPVKLSEITEKPPRTQKELAYLSELPPTPLHVSEDSSSPERTSPPDSSVIVTLLDQAAKSNDDLDVSESKGCMEEKPQEVQTSRNVESIAEQMENPDLKNVGSSTGEKNERTSVAGTVRKCWPNRVAKEQISRRLDGNQYLFLPPNRYIFHGAEVYSDSEDDVLSSSSCGSNSDSGTCQSPSLEEPMEDESEIEEFYNGLEDEPDVPERAGGAGFGTDGDDQEAINEAISVKQEVTDMNYPSNKS
notes: Expressed in 293 or H1299 cells, immunoprecipitated with M2 anti-Flag beads; also called F-SIRT1; Flag-tagged SIRT1; not shown: Flag tag
Consider B1, for which the binding result in test [1] was “binds”.

B2: 14-3-3σ (other, human, UniProt P31947 1-248, looked up)
chain: MERASLIQKAKLAEQAERYEDMAAFMKGAVEKGEELSCEERNLLSVAYKNVVGGQRAAWRVLSSIEQKSNEEGSEEKGPEVREYREKVETELQGVCDTVLGLLDSHLIKEAGDAESRVFYLKMKGDYYRYLAEVATGDDKKRIIDSARSAYQEAMDISKKEMPPTNPIRLGLALNFSVFHYEIANSPEEAISLAKTTFDEAMADLHTLSEDSYKDSTLIMQLLRDNLTLWTADNAGEEGGEAPQEPQS
Turning to B2, the binding result in test [2] is “binds”.

B3: Flag-SIRT7 (enzyme, human, UniProt Q9NRC8 1-400, looked up)
chain: MAAGGLSRSERKAAERVRRLREEQQRERLRQVSRILRKAAAERSAEEGRLLAESADLVTELQGRSRRREGLKRRQEEVCDDPEELRGKVRELASAVRNAKYLVVYTGAGISTAASIPDYRGPNGVWTLLQKGRSVSAADLSEAEPTLTHMSITRLHEQKLVQHVVSQNCDGLHLRSGLPRTAISELHGNMYIEVCTSCVPNREYVRVFDVTERTALHRHQTGRTCHKCGTQLRDTIVHFGERGTLGQPLNWEAATEAASRADTILCLGSSLKVLKKYPRLWCMTKPPSRRPKLYIVNLQWTPKDDWAALKLHGKCDDVMRLLMAELGLEIPAYSRWQDPIFSLATPLRAGEEGSHSRKSLCRSREEAPPGDRGAPLSSAPILGGWFGRGCTKRTKRKKVT
notes: not shown: Flag tag
As to B3, the binding result in test [3] is listed as “no binding”.

B4: GST-SIRT1-CT (other, human, UniProt Q96EB6 500-747, looked up)
chain: LCCNPVKLSEITEKPPRTQKELAYLSELPPTPLHVSEDSSSPERTSPPDSSVIVTLLDQAAKSNDDLDVSESKGCMEEKPQEVQTSRNVESIAEQMENPDLKNVGSSTGEKNERTSVAGTVRKCWPNRVAKEQISRRLDGNQYLFLPPNRYIFHGAEVYSDSEDDVLSSSSCGSNSDSGTCQSPSLEEPMEDESEIEEFYNGLEDEPDVPERAGGAGFGTDGDDQEAINEAISVKQEVTDMNYPSNKS
notes: domain: C-terminal; also called C-terminus of SIRT1; C-terminal domain of SIRT1; not shown: glutathione S-transferase (GST) fusion partner
Take B4: in test [4], the binding result is reported as “no binding”.

B5: Flag-SIRT2 (enzyme, human, UniProt Q8IXJ6 1-389, looked up)
chain: MAEPDPSHPLETQAGKVQEAQDSDSDSEGGAAGGEADMDFLRNLFSQTLSLGSQKERLLDELTLEGVARYMQSERCRRVICLVGAGISTSAGIPDFRSPSTGLYDNLEKYHLPYPEAIFEISYFKKHPEPFFALAKELYPGQFKPTICHYFMRLLKDKGLLLRCYTQNIDTLERIAGLEQEDLVEAHGTFYTSHCVSASCRHEYPLSWMKEKIFSEVTPKCEDCQSLVKPDIVFFGESLPARFFSCMQSDFLKVDLLLVMGTSLQVQPFASLISKAPLSTPRLLINKEKAGQSDPFLGMIMGLGGGMDFDSKKAYRDVAWLGECDQGCLALAELLGWKKELEDLVRREHASIDAQSGAGVPNPSTSASPKKSPPPAKDEARTTEREKPQ
notes: also called F-SIRT2; not shown: Flag tag
B5: the binding result in test [3] is given as “no binding”.

B6: GST-SIRT1-NT (other, human, UniProt Q96EB6 1-210, looked up)
chain: MADEAALALQPGGSPSAAGADREAASSPAGEPLRKRPRRDGPGLERSPGEPGGAAPEREVPAAARGCPGAAAAALWREAEAEAAAAGGEQEAQATAAAGEGDNGPGLQGPSREPPLADNLYDEDDDDEGEEEEEAAAAAIGYRDNLLFGDEIITNGFHSCESDEEDRASHASSSDWTPRPRIGPYTFVQQHLMIGTDPRTILKDLLPETI
notes: domain: N-terminal; also called N-terminus of SIRT1; N-terminal domain of SIRT1; not shown: glutathione S-transferase (GST) fusion partner
Turning to B6, the binding result in test [4] was “no binding”.
